In the DeepSol protein solubility set:

test: soluble on expression in E. coli; label from the status in PepcDB or PDB records

Sequence	soluble on expression in E. coli
MGSDKIHHHHHHMAGSVIHLDENAGPPATHGLVVGVGKYPHLEGGEAPVADSDGMRQLSSPPLSARAFARWLLAEYHDPQRPLGSVSLLLSEEQPAPFVNPRTGTAHEVEVATIDNILAAVTQWYDRGDSHVDNRLVFYFCGHGISQGDDMALLAADIFADPHNPLNGALDFAGLMNGLKRCKASQQVFFLDACRSNSDVLIEASGTRFAGRTPLGAGARPLDLPRRFHIPYYATLSGDQSHARPGQVSLFTEALLKSLAGAASDDPEGDWRVNTAHLLEAIDHFMHQPCFAGMVAGVQVPAVGELPVFVLHQLAGPPVVPVYVGCDPAQDNAEAEFVCLEGGRERLRRTLNDVDDTDPESEWAIELSFGDYDFEARLGERDVRTKTITVRPVFRRVHLVKS	not soluble
GMLESVRKEWLEIMDRELLEKARSLINANYISTTLSTVDRNYEVNIAVISVLEMIGDDTIICARFGADKTYANLKETGKGVFMVLLTDNDKSKDGIRVYVELSADLQEGEYFDRIKKRLDNTTYKNFPLKNCLVFKIVKILPVSLLRK	soluble
MYETYHSGWIECITGSMFSGKSEELIRRLRRGIYAKQKVVVFKPAIDDRYHKEKVVSHNGNAIEAINISKASEIMTHNLTNVDVIGIDEVQFFDDEIVSIVEKLSADGHRVIVAGLDMDFRGEPFEPMPKLMAVSEQVTKLQAVCAVCGSSSSRTQRLINGKPAKIDDPIILVGANESYEPRCRAHHIVAPSDNNKEEL	not soluble
MSLKAKYVWVALLALTFFGCDDNTGTIGWDMLPDSDQNINGRYTTYELTTNSDLSGPVFAKTSVGYVGKFTDKEFGEYEASFLAQLNSPDGISFPSVYDPETNPKGVMAGDSIHTAELILYYKSYFGDSINPCRMTVYELDENLTQNYYTDIDPLKYYNPNNLLARKAYTAVDQSLSDSIRNSDDFYPNVRLTSEEITKLGKRIYRLNRDHPEYFKTSEAFINNVFKGIYAKNDYGNGTILYVDQINLNVVIRCHEKDSLGNNLKKKNGADSLYYTTRTFATTKEVIQANKFVNSEKLNEIAKKTDCTYLKSPAGIFTQATLPINKIYEELSHDTINAVKLTFNSYNQPDNGKFSMKAPTYVLLLREKERQSFFEENKLTDNITSYLAVHNAIISNKPTTNQYVFTNLTRLINACVNEKQEAKKKAGDSWNEAAWEAANPDWNKVVLIPVLVQYDSSSNKNMISIQHDLQPGYVKLEGGPDGTKLKLEVTYTNFNGKEGHHHHHH	not soluble
MLLGEGAFGQVFKGILRGPNGQVIPVAVKQLKANAIDEEREEFVREIQMMQTVGQHDNIVTMYGYCMDEQLQCMIMEYVPYGDLKHYLQNMRKEKDSDSAIDSKEFLSFTNQIACGMAHLESVGIIHRDLAARNILVGTGKVLKISDFGMSRPGVYIKMSKGVIPLRWLSPEAIKDNTYSNKSDVWAFGVLLWEIATLGGFPYNNVADKDILNQLTEGMRLEQPAKCSDDMYILMKSCWNLKAEDRPSFLAILSKIEQIANVDADAPPSDPPAKDV	not soluble
MGSDKIHHHHHHMTVSMEQLEAFVAAAEHGSFSAAGRALRKAQSAVSTQVSNLEEDLGLELFSRQGRNPTLTAAGERLLSEARLILDRREHLIGVAASFEAHVEKRLVVAIDELYPEHALGELFAEFAVHFPHVELELLFPMMEDVSRLVLDGKADIGVMWRQEDLPAELGFHTIGWVQLKLVCGRNHPLANAVVGWEDLKRHRQIMVTVRTEGMERHRLRVAAEVWWVESHWVILQILKQGIGWALIPAHILARSPVAQDLAIPALQFDDGAHPVALELVWHKQRPSGPAATWLRKRFATTKIDMVAE	not soluble
MEDKEAVRRGVTLFALPAHAGEGAKAIWQTCDVIWSALGDSSEDVNWYTKRATLSAVYSATVLYWLGDETPGHEATWEFLDRRIDNVMQFEKFKADVQKNPLLKPLLAGPNWLFAQMRAPLEHHHHHH	soluble
MKLNFNPVTKEEIHQLETALLVGTLFRKEVLEEIRNSAERLTWVDSLAVAAGALARAKAGMTASEIAEELGRTEATIREHVKGETKAGKLVNETYELLKEGKLSVEGLIGEGIKVVTTTTGSDEKLQEVKKELEEIKQKLESVIQKL	soluble
MKHMLIAGGGIGGLSAAISLRKAGFSVTLCEAASENRKTGAGILQPQNALAVLKELGVFEDCCKHGFQTEWFKTFDEQGNLLFQVSESFLDDSLPGRNNILRKTLNDILMKHAEAVGVDIKWGKKVVAYEETAESVTALCEDGEKMQADILAGFDGIHSVVRDKMLQKETEKEHLGMGAWRFYIELPDYTFEDATFMYRSGDTQIGVVPLAQHAGYVFVLQPCTSDYWDEEDTRFDRVKEILSGFRGLDFVTKHMSKQHPVIFNKLEQVAVQEPWHKGRVIIGGDAAHAGAPTLAQGAAMAIEDAIVLAEELQNHADHETALQAYYKRRAPRALKVQNLSSEIVRRRLKGEPGAEELIGECYAVLREGYLEHHHHHH	not soluble
MMYPYVRLFMEMRRARRLDPLPVLGTHRSSHRCLPWDLAPWRELNNGRTLTLFDLGRAPLLVRTGMQRICSEKGWGMTVAGSSVRYRRRVVLMERLEMVSRCLGWDGRFFYMEQSLWRKGDCTSHMLLRAATTTGSGIVPPAEVAAALGAGESPPLPDWAQAWIEADALRPWPPAALEHHHHHH	not soluble
MGSDKIHHHHHHMEKLRVIEMIKNNPNIIATIDNPTDEMKLLAIKENGLVLEYINNPTREMQELAIDNNIRAIKFIDNPTEDMMIKAVNEGWSILDYIKNPTDKVIEMAINQAGWAIKYAKNPSEELQLLAVRKNYDSIKFIKQPYESVQEEAVRISYDALRYIDSPSYNAELVAIKNNEAAISFITDLDKNKMLEFLKVNILVIKYILKKVSKDELESVLKEVLSKEDVEEKYIRDFLNCSVIDRNSESIPIDKIMFIYKYGSKTAKKIAVDEKLKIM	not soluble
MGSDKIHHHHHHENLYFQGMKIKVALLDKDKEYLDRLTGVFNTKYADKLEVYSFTDEKNAIESVKEYRIDVLIAEEDFNIDKSEFKRNCGLAYFTGTPGIELIKDEIAICKYQRVDVIFKQILGVYSDMAANVATISGENDKSSVVIFTSPCGGVGTSTVAAACAIAHANMGKKVFYLNIEQCGTTDVFFQAEGNATMSDVIYSLKSRKANLLLKLESCIKQSQEGVSYFSSTKVALDILEISYADIDTLIGNIQGMDNYDEIIVDLPFSLEIEKLKLLSKAWRIIVVNDGSQLSNYKFMRAYESVVLLEQNDDINIIRNMNMIYNKFSNKNSEMLSNISIKTIGGAPRYEHATVRQIIEALTKMEFFEEILQ	soluble
MPKVAILIYSVDDIIATLAENEKKGIEIAGGEAEIFQVPDVSYKTEYATEEGKEAAKVAKTNADFSYKILTRETLVEYDYYLFGIPTKFGNFPAEWKSFWDSNTGGLWAKGSLHGKIAGLFVSGAISGKGDTEMCIMNAMSTLVHHGVIYVPLGYKNAYKELTDVEDVNGSCAWGAGCVSGIDGGRPPSLSELRVHQLQGKAFYDRIKDL	not soluble
MMDNNITETEMKVGHPPANKVGGRRVVNRKDRKNSDSNDNANSEGSDEVVREIIDYDLPAKMERSYPTEAVKKVHEKPMPAIQPVHINRDANSGVHRFQPRKQTH	soluble
GPGSMERYAFAEDYKNARGIPRVEYISDMATFVKNNGGADALISRLILDSSKYEHTEKRLVSSMANLDHKIPTIKKTLHALNFLKKRLQEDQTPVRSYYCLTDAVFGEAEVVPQETVHLWMGAKVMVEYTFDEALQLLEKNLANAETNLKATKEDLAWVQEQMTNLQINISRVYNYDLKNKRTNGGAAEPSA	soluble
MSLSSKLRLQLDAHASIHENVRRLLQFTTSIMEANEEGIRKDIDSEFLHDFRVAIRRSRSILRLLNGVFDPEKTAWMLAGLRELGKRTNDLRDSDVYLLRREEYTSLLPPSLRPALDPFFSDLEADKRLHHRQFCRYLTGREYSGFMTSLKEFIAEGELPDPETAPLAAEPTGDVAAKTIRKALKKVLVHGRRTGSETSDAELHELRIDCKKLRYLLEFFASLFPPKATAQVLRQMKTLQDNLGTFVDLTVQMEFLQSRLETIPADRGGISEAAAIGGLLTTLYRKREKVREHFHEIFSGFDSNETGELFDELLTGLAEGHHHHHH	soluble
MSTSSLRRQMKNIVHNYSEAEIKVREATSNDPWGPSSSLMSEIADLTYNVVAFSEIMSMIWKRLNDHGKNWRHVYKAMTLMEYLIKTGSERVSQQCKENMYAVQTLKDFQYVDRDGKDQGVNVREKAKQLVALLRDEDRLREERAHALKTKEKLAQTATASSAAVGSGPPPEAEQAWPQSSGEEELQLQLALAMSKEEADQEERIRRGDDLRLQMAIEESKRETGGKEESSLMDLADVFTAPAPAPTTDPWGGPAPMAAAVPTAAPTSDPWGGPPVPPAADPWGGPAPTPASGDPWRPAAPAGPSVDPWGGTPAPAAGEGPTPDPWGSSDGGVPVSGPSASDPWTPAPAFSDPWGGSPAKPSTNGTTAGGFDTEPDEFSDFDRLRTALPTSGSSAGELELLAGEVPARSPGAFDMSGVRGSLAEAVGSPPPAATPTPTPPTRKTPESFLGPNAALVDLDSLVSRPGPTPPGAKASNPFLPGGGPATGPSVTNPFQPAPPATLTLNQLRLSPVPPVPGAPPTYISPLGGGPGLPPMMPPGPPAPNTNPFLL	soluble
MDPACASVDNSKSDPLTDSYPQKYRYSFHRNCQRIMLGVNLKRKNSHYTKGATMTATHNHYLAVLGEDFVAQQYANEGYDITARNVSFSVGEIDIIATSPQGEVVFIEVKTRSSSLMDAAEAVTPTKMRKIHRAASKWLQGKPFADIRFDVVAVHVDEYGELDMTRYQGVEHGAC	not soluble
MGSDKIHHHHHHMSIYRKIDRNKIQFDFIVHKTGKNFFEDEILKLGGRIYRLPNKRKHPFKYKQEFLNVIKNYKIIHVHSVYAFTYYEVKWARQCQKSVILHSHNSDAKLLRKIIHYLFKHLQNHYVSVRLSPSKQAAKWMFNEGHDKVVYLYNGFDTTKFQFDMNSRIEIREQLGLANNDYIIGCVGRLDWQKDPIYLLRLFEKLKANDNAYKLIFIGDGSYRQTLERETHQKGLVNDVIFTGSVSNVPEYLSALDIFVLPTRYEGLGISLIEAQINGLPVFTNKDVPKEAVINQNMYLLDKGDSELWVDAINKELNVINLKKRKVNLSDFNQYNIETVVKKLQNIYLQLLS	not soluble
SLQMKNYQQTLKRMSDRSSGFLGVGVHKQKLGIGAIAIVVTDKDGEIVDCEMMSGVTVFSRFKPLTDFVGMSLNECKVLLQNESVDIALHGALKKIEEQMNRKENVTT	soluble
MGSDKIHHHHHHMITTARPNVLWIMADQLRFDYLSCYGHPHLHTPHIDALAARGVRFTNAYVQSPVCGPSRMSAYTGRYVRSHGSTWNGMPLRVGEPTLGDHLREAGARAVLVGKTHMVADAEGMAWLGIDPKSEIGVSRSECGFEPFERDDGLHPDSPRQRWSAYDDYLVSHGYDSQNPWEDFANSGVDADGELLSAWLLKNSRLAANVPEEHSETAYMTDRAMAFMEEAEADGRPWMCHLSYIKPHWPYIVPAPYHDMYDESHIIDPVRSEAERDNAHPLVGAYQNSRVCRTFSRDQVRDHVIPAYMGLIKQLDDNLGRLFAWMDARGLSENTIIAFTSDHGDYMGDHWMGEKDFYHEMAVKVPMIIADPRPQADGTRGHVADDLVEMIDLAPTFMTALGAAPKPHIIEGRDLTPLLHGTDGFARQYVISEYDYHWSEMAAALQVPQEDAHTTMIFDGRWKYIRCERFDPVLFDLETDPQELVDLGTSPAHAEIRALMDAALLKWATQHHTRITATAAVLAGQKIAAETGILIGFWDEAEFEAATGFPFTDLTPQGPPK	not soluble
